# Measurements reported in IntAct's records for PubMed 9418861.
# B1: Serine/threonine-protein kinase MRCK alpha (Homo sapiens), Q5VT25 (parent)
# chain: MSGEVRLRQLEQFILDGPAQTNGQCFSVETLLDILICLYDECNNSPLRREKNILEYLEWAKPFTSKVKQMRLHREDFEILKVIGRGAFGEVAVVKLKNADKVFAMKILNKWEMLKRAETACFREERDVLVNGDNKWITTLHYAFQDDNNLYLVMDYYVGGDLLTLLSKFEDRLPEDMARFYLAEMVIAIDSVHQLHYVHRDIKPDNILMDMNGHIRLADFGSCLKLMEDGTVQSSVAVGTPDYISPEILQAMEDGKGRYGPECDWWSLGVCMYEMLYGETPFYAESLVETYGKIMNHKERFQFPAQVTDVSENAKDLIRRLICSREHRLGQNGIEDFKKHPFFSGIDWDNIRNCEAPYIPEVSSPTDTSNFDVDDDCLKNSETMPPPTHTAFSGHHLPFVGFTYTSSCVLSDRSCLRVTAGPTSLDLDVNVQRTLDNNLATEAYERRIKRLEQEKLELSRKLQESTQTVQALQYSTVDGPLTASKDLEIKNLKEEIEKLRKQVTESSHLEQQLEEANAVRQELDDAFRQIKAYEKQIKTLQQEREDLNKELVQASERLKNQSKELKDAHCQRKLAMQEFMEINERLTELHTQKQKLARHVRDKEEEVDLVMQKVESLRQELRRTERAKKELEVHTEALAAEASKDRKLREQSEHYSKQLENELEGLKQKQISYSPGVCSIEHQQEITKLKTDLEKKSIFYEEELSKREGIHANEIKNLKKELHDSEGQQLALNKEIMILKDKLEKTRRESQSEREEFESEFKQQYEREKVLLTEENKKLTSELDKLTTLYENLSIHNQQLEEEVKDLADKKESVAHWEAQITEIIQWVSDEKDARGYLQALASKMTEELEALRNSSLGTRATDMPWKMRRFAKLDMSARLELQSALDAEIRAKQAIQEELNKVKASNIITECKLKDSEKKNLELLSEIEQLIKDTEELRSEKGIEHQDSQHSFLAFLNTPTDALDQFERSPSCTPASKGRRTVDSTPLSVHTPTLRKKGCPGSTGFPPKRKTHQFFVKSFTTPTKCHQCTSLMVGLIRQGCSCEVCGFSCHITCVNKAPTTCPVPPEQTKGPLGIDPQKGIGTAYEGHVRIPKPAGVKKGWQRALAIVCDFKLFLYDIAEGKASQPSVVISQVIDMRDEEFSVSSVLASDVIHASRKDIPCIFRVTASQLSASNNKCSILMLADTENEKNKWVGVLSELHKILKKNKFRDRSVYVPKEAYDSTLPLIKTTQAAAIIDHERIALGNEEGLFVVHVTKDEIIRVGDNKKIHQIELIPNDQLVAVISGRNRHVRLFPMSALDGRETDFYKLSETKGCQTVTSGKVRHGALTCLCVAMKRQVLCYELFQSKTRHRKFKEIQVPYNVQWMAIFSEQLCVGFQSGFLRYPLNGEGNPYSMLHSNDHTLSFIAHQPMDAICAVEISSKEYLLCFNSIGIYTDCQGRRSRQQELMWPANPSSCCYNAPYLSVYSENAVDIFDVNSMEWIQTLPLKKVRPLNNEGSLNLLGLETIRLIYFKNKMAEGDELVVPETSDNSRKQMVRNINNKRRYSFRVPEEERMQQRREMLRDPEMRNKLISNPTNFNHIAHMGPGDGIQILKDLPMNPRPQESRTVFSGSVSIPSITKSRPEPGRSMSASSGLSARSSAQNGSALKREFSGGSYSAKRQPMPSPSEGSLSSGGMDQGSDAPARDFDGEDSDSPRHSTASNSSNLSSPPSPASPRKTKSLSLESTDRGSWDP
# Variants of: B1
# Conditions: with cdc42_human CDC42, P60953
# cdc42_human CDC42, P60953, sequence (P60953 whole entry, looked up): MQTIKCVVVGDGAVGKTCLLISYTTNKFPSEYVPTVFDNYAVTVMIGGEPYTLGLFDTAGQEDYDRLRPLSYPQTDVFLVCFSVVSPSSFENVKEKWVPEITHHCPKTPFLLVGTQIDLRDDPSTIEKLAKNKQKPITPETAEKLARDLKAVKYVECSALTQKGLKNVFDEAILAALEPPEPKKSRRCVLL
row,Variant,effect of a mutation on the interaction
1,H1579A,decreasing interaction
2,H1582A,decreasing interaction
